# Laboratory results as given in patent publication US20240150494A1.
# Columns and labels:
# [1] = biological target: G2-Rituximab (galactosylated afucosylated glycoform of rituximab) (human); assay: SPR, 256 to 8 nM in 2-fold steps
# [2] = biological target: G2F-Rituximab (galactosylated fucosylated glycoform of rituximab) (human); assay: SPR, 256 to 8 nM in 2-fold steps
substance,measurement,setting,value
tetrameric FcγRIIIA (from UniProt P08637 17-208) (receptor),KD1,[1],29.9 nM
same,KD2,[1],2.3 nM
same,KD1,[2],55.2 nM
same,KD2,[2],2.29 nM
